These results are taken from paper PMC8249609 (2021).

In this test the target is T1, AT1 receptor, residues 1-318, with N-terminal Flag-tag and BRIL (Flag-BRIL-AT1) (human (by the printed RefSeq …, UniProt P30556 1-318)).
T1 chain: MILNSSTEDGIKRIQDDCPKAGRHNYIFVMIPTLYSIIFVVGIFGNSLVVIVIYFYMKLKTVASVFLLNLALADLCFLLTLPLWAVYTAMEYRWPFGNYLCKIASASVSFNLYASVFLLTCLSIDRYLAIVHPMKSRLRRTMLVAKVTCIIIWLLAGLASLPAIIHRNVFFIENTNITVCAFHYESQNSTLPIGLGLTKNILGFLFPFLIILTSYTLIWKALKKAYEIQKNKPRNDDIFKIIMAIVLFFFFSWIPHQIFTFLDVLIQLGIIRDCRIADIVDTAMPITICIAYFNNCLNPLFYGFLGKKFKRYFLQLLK
The test can be described thus: SPR.

B1: cartilage oligomeric matrix protein with a C-terminal His-tag (COMP-His) (natural protein)
chain: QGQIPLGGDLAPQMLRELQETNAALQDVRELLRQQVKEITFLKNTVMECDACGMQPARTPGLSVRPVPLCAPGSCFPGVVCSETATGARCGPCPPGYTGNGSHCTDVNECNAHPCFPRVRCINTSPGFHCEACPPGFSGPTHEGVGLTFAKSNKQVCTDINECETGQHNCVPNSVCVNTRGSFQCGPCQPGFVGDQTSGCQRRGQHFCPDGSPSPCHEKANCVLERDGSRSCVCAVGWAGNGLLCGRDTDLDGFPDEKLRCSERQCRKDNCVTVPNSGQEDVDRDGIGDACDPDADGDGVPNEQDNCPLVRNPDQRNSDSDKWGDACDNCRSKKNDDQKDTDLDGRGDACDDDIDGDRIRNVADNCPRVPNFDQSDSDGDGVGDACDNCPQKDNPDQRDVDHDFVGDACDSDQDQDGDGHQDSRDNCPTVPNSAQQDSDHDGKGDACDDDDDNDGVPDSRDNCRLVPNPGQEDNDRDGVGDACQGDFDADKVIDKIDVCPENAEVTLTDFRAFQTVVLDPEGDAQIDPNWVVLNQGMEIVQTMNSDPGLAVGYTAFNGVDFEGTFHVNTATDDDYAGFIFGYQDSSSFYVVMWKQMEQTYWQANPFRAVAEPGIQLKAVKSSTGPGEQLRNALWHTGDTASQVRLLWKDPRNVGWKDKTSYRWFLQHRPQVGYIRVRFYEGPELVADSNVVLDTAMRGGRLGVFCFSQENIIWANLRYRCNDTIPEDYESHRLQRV
The term koff denotes a measure of how fast the partners let go of each other. As for B1, the koff is 0.000389 s⁻¹.
